T1: human CD70 expressed on parental (WT) Jurkat cells (human, UniProt P32970 1-193)
T1 sequence: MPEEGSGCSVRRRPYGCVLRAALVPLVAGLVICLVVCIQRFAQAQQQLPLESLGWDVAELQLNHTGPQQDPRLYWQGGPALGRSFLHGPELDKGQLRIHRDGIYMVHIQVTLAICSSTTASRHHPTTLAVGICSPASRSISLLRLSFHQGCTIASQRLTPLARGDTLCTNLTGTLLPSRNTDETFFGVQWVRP

T2: recombinant biotinylated human CD70 protein (human, UniProt P32970 39-193, biotinylated (site not stated))
T2 construct: also called recombinant biotinylated hCD70 protein
T2 sequence: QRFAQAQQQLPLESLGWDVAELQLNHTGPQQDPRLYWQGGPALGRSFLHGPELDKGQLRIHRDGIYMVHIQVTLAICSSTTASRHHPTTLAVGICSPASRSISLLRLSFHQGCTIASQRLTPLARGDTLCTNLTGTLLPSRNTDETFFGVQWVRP

T3: recombinant human CD70 (AviTag, polyhistidine tag and chicken tenascin trimerization domain fused to the … (chicken; human, UniProt P10039 110-139, limits assumed)
T3 construct: domain: trimerization domain; Expressed in Expi293, purified by IMAC and SEC; Copies 3 is inferred from the trimerization domain; not shown: AviTag; polyhistidine tag
T3 sequence: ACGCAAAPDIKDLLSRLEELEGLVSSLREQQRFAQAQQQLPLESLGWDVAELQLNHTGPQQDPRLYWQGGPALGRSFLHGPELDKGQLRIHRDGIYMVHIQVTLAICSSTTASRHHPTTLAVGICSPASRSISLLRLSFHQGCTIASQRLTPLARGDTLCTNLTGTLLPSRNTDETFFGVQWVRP

B1: P02B10 CD70-specific CAR (other)
chain: EVQLLESGGGLVQPGGSLRLSCAASGFAFSNYAMSWVRQAPGKGLEWVSAIRGGGGSTYYADSVKGRFTISRDNSKNTLYLQMNSLRAEDTAVYYCARDFISGTWYPDYWGQGTLVTVSSGGGGSGGGGSGGGGSGGGGSELQSVLTQPPSASGTPGQRVTISCSGSSSNIGSNYVYWYQQLPGTAPKLLIYRNNQRPSGVPDRFSGSKSGTSASLAISGLRSEDEADYYCAAWDDSLSGVVFGGGTKLTVLTTTPAPRPPTPAPTIASQPLSLRPEACRPAAGGAVHTRGLDFACDIYIWAPLAGTCGVLLLSLVITLYCKRGRKKLLYIFKQPFMRPVQTTQEEDGCSCRFPEEEEGGCELRVKFSRSADAPAYQQGQNQLYNELNLGRREEYDVLDKRRGRDPEMGGKPRRKNPQEGLYNELQKDKMAEAYSEIGMKGERRRGKGHDGLYQGLSTATKDTYDALHMQALPPR
notes: Chimeric antigen receptor on transduced Jurkat cells; the signal peptide is left out
B2: P07D03 CD70-specific CAR (other)
chain: EVQLVQSGAEVKKPGESLKISCKGSGYRFTSYWIGWVRQMPGKGLEWMGSIYPDDSDTRYSPSFQGQVTISADKSISTAYLQWSSLKASDTAMYYCASSTVDYPGYSYFDYWGQGTLVTVSSGGGGSGGGGSGGGGSGGGGSELQSVLTQPPSASGTPGQRVTISCSGSRSNIGSNYVYWYQQLPGTAPKLLIYRNNQRPSGVPDRFSGSKSGTSASLAISGLRSEDEADYYCASWDGSLSAVVFGTGTKLTVLTTTPAPRPPTPAPTIASQPLSLRPEACRPAAGGAVHTRGLDFACDIYIWAPLAGTCGVLLLSLVITLYCKRGRKKLLYIFKQPFMRPVQTTQEEDGCSCRFPEEEEGGCELRVKFSRSADAPAYQQGQNQLYNELNLGRREEYDVLDKRRGRDPEMGGKPRRKNPQEGLYNELQKDKMAEAYSEIGMKGERRRGKGHDGLYQGLSTATKDTYDALHMQALPPR
notes: as for B1
B3: P08A02 CD70-specific CAR (other)
chain: EVQLVQSGAEVKKPGESLKISCKGSGYTFTNYWIAWVRQMPGKGLEWMGIIYPDGSDTRYSPSFQGQVTISADKSISTAYLQWSSLKASDTAMYYCARDITSWYYGEPAFDIWGQGTLVTVSSGGGGSGGGGSGGGGSGGGGSELQSVLTQPPSASGTPGQRVTISCSGSSSNIGSNYVYWYQQLPGTAPKLLIYRNNQRPSGVPDRFSGSKSGTSASLAISGLRSEDEADYYCATWDDSLGSPVFGTGTKLTVLTTTPAPRPPTPAPTIASQPLSLRPEACRPAAGGAVHTRGLDFACDIYIWAPLAGTCGVLLLSLVITLYCKRGRKKLLYIFKQPFMRPVQTTQEEDGCSCRFPEEEEGGCELRVKFSRSADAPAYQQGQNQLYNELNLGRREEYDVLDKRRGRDPEMGGKPRRKNPQEGLYNELQKDKMAEAYSEIGMKGERRRGKGHDGLYQGLSTATKDTYDALHMQALPPR
notes: as for B1
B4: P12F02 anti-CD70 scFv-Fc fusion (Fc fusion)
chain: EVQLLESGGGLVQPGGSLRLSCAASGFTFSSYAMSWVRQAPGKGLEWVSTISGTGGTTYYADSVKGRFTISRDNSKNTLYLQMNSLRAEDTAVYYCAKVRAGIDPTASDVWGQGTLVTVSSGGGGSGGGGSGGGGSGGGGSELQSVLTQPPSASGTPGQRVTISCSGSTSNIGRNYVYWYQQLPGTAPKLLIYRTNQRPSGVPDRFSGSKSGTSASLAISGLRSEDEADYYCAAWDDSLSGRVFGTGTKLTVL
notes: scFv-Fc expressed in Expi293; not shown: part of the hinge and Fc from a modified human IgG2
B5: P13F04 anti-CD70 scFv-Fc fusion (Fc fusion)
chain: QVQLVQSGAEVKKPGSSVKVSCKASGGTFSSYAISWVRQAPGQGLEWMGEIIPIFGTASYAQKFQGRVTITADESTSTAYMELSSLRSEDTAVYYCARAGWDDSWFDYWGQGTLVTVSSGGGGSGGGGSGGGGSGGGGSELQSVLTQPPSASGTPGQRVTISCSGSNSNIGTNYVSWYQQLPGTAPKLLIYRSSRRPSGVPDRFSGSKSGTSASLAISGLRSEDEADYYCAAWDGSLSGHWVFGTGTKLTVL
notes: as for B4

Columns and labels:
[1] = biological target: T1, human CD70 expressed on parental (WT) …; experiment: cell-based or functional assay
[2] = biological target: T2, recombinant biotinylated human CD70 …; experiment: flow cytometry: CAR-transduced Jurkat cells incubated with recombinant biotinylated human CD70, streptavidin-PE; percent of cells binding
Description: On Day 5, transduced cells were stained with human anti-CD69 antibody conjugated to PE-Cy7 and acquired on a flow cytometer to obtain percentage of CD69+ population for each CAR. […] Activation ratios (WT activation/KO activation) and protein binding were used to rank CARs.
Table 7: Activation ratio and protein binding of phage CARs were determined in the Jurkat screen. Activation ratio was used for in vitro characterization of CARs. Activation ratio was determined by calculating the ratio of the percentage of CD69 expression on WT Jurkat cells transduced with CD70 CAR (WT) to that on CD70 knockout Jurkat cells transduced with CD70 CAR (KO). A higher activation ratio indicates target-dependent activation. […] Protein binding values indicate the percentage of CD3+ CAR T cells that bind to human CD70 protein.

[3] = biological target: T3, recombinant human CD70 (AviTag, …); experiment: SPR (Biacore 8K, 37 C): CD70 captured via anti-AviTag antibody on C1 chip, scFv-Fc as analyte; 1:1 Langmuir fit
Description: The antibody binding kinetics were determined by surface plasmon resonance (Biacore 8K, GE Healthcare Bio-Sciences, Pittsburgh Pa.) at 37° C. in HBS-T+ (0.01 M HEPES pH 7.4, 0.15 M NaCl, 0.05% v/v Tween20, 1 mg/mL BSA). Recombinant human CD70 diluted in HBS-T+ was captured on a C1 chip immobilized with an anti-AviTag™ antibody. Purified anti-CD70 scFv-Fc fusions were serially diluted into HBS-T+, injected at 30 uL/min for 2-4 min, dissociation monitored for 10 min then the surface regenerated with 75 mM phosphoric acid between injections. Buffer cycles were collected for each anti-CD70 scFv-Fc fusion for double-referencing purposes (double-referencing as described in Myszka, D. G. Improving biosensor analysis. J. Mol. Recognit. 12, 279-284 (1999)). Kinetic association rates (kₒₙ) and dissociation rates (koff) were obtained simultaneously by fitting the double-referenced sensorgrams globally to a 1:1 Langmuir with mass transport model using Biacore 8K Evaluation Software (GE Healthcare Bio-Sciences, Pittsburgh Pa.) then used to calculate an equilibrium dissociation constant (KD) from the kinetic rate constants (KD=koff/kₒₙ). The data was fit to a 1:1 steady state affinity model using Biacore 8K Evaluation Software to determine a steady state equilibrium dissociation constant (SS KD) as needed.

Row | Binder | Activation ratio (WT/KO) [1] | Protein binding (%) [2] | Kd [3] | koff [3] | kon [3] | t1/2 [3]
1 | B1 | 2.81 | 77.9% |  |  |  | 
2 | B2 | 3.04 | 0.68% |  |  |  | 
3 | B3 | 14.4 | 20.7% |  |  |  | 
4 | B4 |  |  | 5.7 nM | 0.00155 s⁻¹ | 275000 M⁻¹ s⁻¹ | 7.4 min
5 | B5 |  |  | 205 nM | 0.02 s⁻¹ | 97700 M⁻¹ s⁻¹ | 0.6 min
